Measured values: patent US20090202508A1, “NEGATIVE REGULATION OF HYPOXIA INDUCIBLE FACTOR 1 BY OS-9” (THE JOHNS HOPKINS UNIVERSITY, priority 2004, published 2009)

Key:
[1] = tested on: HIF-1α; experiment: HIF-1α protein levels by immunoblot in transfected 293 cells; type: cell-based, human
Procedure: 293 or Hep3B cells were seeded onto 24-well plates at 8×10^4 cells per well of a 24-well plate. The following day, the cells were transfected with plasmid DNAs using Fugene-6 (Roche) for 293 and Lipofectamine Plus (Invitrogen) for Hep3B cells. After 24 h, the cells were exposed to 20% or 1% O2 for 24 h. Cells were lysed, and the luciferase activities were determined by multi-well luminescence reader (PerkinElmer), using the Dual-Luciferase Reporter Assay System (Promega). For p2.1 reporter assay, cells were co-transfected with 15 ng of control reporter pSV-Renilla, 135 ng of HIF-1 reporter p2.1, and expression vector encoding HA-OS-9, HIF-1α, or empty vector. Unless indicated otherwise, 200 ng of HIF-1α, 400 ng of HA-OS-9, 1 ng of PHD2, or 1 ng of HIF-1α triple mutant P402A/P564A/N803A (HIF-1α TM) expression vector was used for co-transfection. For pGalA reporter assays, Hep3B cells were co-transfected with 12.5 ng of pSV-Renilla, reporter 200 ng of pG5ElbLuc, 100 ng of expression vector encoding the GAL4 DNA-binding domain alone or fused to HIF-1α residues 531-826 (Jiang et al. 1997) and empty vector or vector encoding HA-OS-9. For immunoblot assays, 293 cells were seeded at 3×10^6 cells per 10-cm plate. The following day, the cells were co-transfected with expression vectors using Fugene-6. After 24 h, the cells were exposed to 20% or 1% O2 with or without MG132 (10 μM) for 8 h and lysed in 200 μl of lysis buffer containing 50 mM Tris-Cl (pH 8.0), 150 mM NaCl, 5 mM EDTA, 0.1% SDS, 1% NP-40, 0.5% sodium deoxycholate, Complete protease inhibitor cocktail (Roche), sodium orthovanadate, and sodium vanadate (Sigma).

[2] = tested on: PHD2; experiment: PHD2 protein levels by immunoblot in transfected 293 cells; type: cell-based, human; conditions: co-transfection of OS-9 vector; FIG. 7C
Procedure: 293 or Hep3B cells were seeded onto 24-well plates at 8×10^4 cells per well of a 24-well plate. The following day, the cells were transfected with plasmid DNAs using Fugene-6 (Roche) for 293 and Lipofectamine Plus (Invitrogen) for Hep3B cells. After 24 h, the cells were exposed to 20% or 1% O2 for 24 h. Cells were lysed, and the luciferase activities were determined by multi-well luminescence reader (PerkinElmer), using the Dual-Luciferase Reporter Assay System (Promega). For p2.1 reporter assay, cells were co-transfected with 15 ng of control reporter pSV-Renilla, 135 ng of HIF-1 reporter p2.1, and expression vector encoding HA-OS-9, HIF-1α, or empty vector. Unless indicated otherwise, 200 ng of HIF-1α, 400 ng of HA-OS-9, 1 ng of PHD2, or 1 ng of HIF-1α triple mutant P402A/P564A/N803A (HIF-1α TM) expression vector was used for co-transfection. […]
For in vitro VHL binding assay, preincubated GstA and 5 μl of [^35S]methionine-labeled VHL protein were mixed in a total volume of 300 μl of PBS-T with 1 mM desferrioxamine and incubated at 4° C. for 90 min. […] Beads were washed three times with PBS-T. Proteins were eluted in Laemmli sample buffer, fractionated by SDS-PAGE, and detected by autoradiography. […]

[3] = biological target: T1, PHD2 (Homo sapiens, UniProt Q9GZT9); experiment: Prolyl hydroxylation assay / in vitro VHL binding assay with GST-HIF-1α (531-826); type: biochemical
T1 construct: expressed in transfected cells; host or cells: 293 cells (whole cell lysate used as the enzyme source)
Procedure: [^35S]methionine-labeled VHL protein was synthesized in vitro and GST-HIF-1α (531-826) fusion protein (GstA) was expressed in E. coli. 293 cells were transfected with empty, PHD2, or OS-9 expression vector. After 24 h, cells were washed twice with cold hypotonic extraction buffer containing 20 mM Tris (pH 7.5), 5 mM KCl, 1.5 mM MgCl2, 1 mM dithiothreitol and lysed with hypotonic extraction buffer in a Dounce homogenizer. The cell extract was centrifuged at 10,000×g for 10 min at 4° C., and the supernatant was stored in aliquots at −70° C. GstA (4 μg) was preincubated with whole cell lysate (50 μg) in a total volume of 50 μl with PBS-T at 30° C. for 10 min with or without 1 mM dimethyloxalyl glycine (DMOG). The reaction was terminated by addition of desferrioxamine to 1 mM. One aliquot (0.5 μg of GstA) was used for immunoblot assay using anti-hydroxyproline-564 HIF-1α antibody (Chan et al., 2002). The remainder ([…] of GstA) was used for in vitro VHL binding assay.
For in vitro VHL binding assay, preincubated GstA and 5 μl of [^35S]methionine-labeled VHL protein were mixed in a total volume of 300 μl of PBS-T with 1 mM desferrioxamine and incubated at 4° C. for 90 min. 20 ul of glutathione-Sepharose-4B beads (Amersham Biosciences) was added and incubated for 30 min with rotation. Beads were washed three times with PBS-T. Proteins were eluted in Laemmli sample buffer, fractionated by SDS-PAGE, and detected by autoradiography. For PHD binding assay, […] of GST-HIF-1α was preincubated with 50 μg of -whole cell lysate in a total volume of 50 μl with PBS-T at 30° C. for 10 min with or without 1 mM DMOG. The reaction was terminated by addition of desferrioxamine to 1 mM, 20 μl of glutathione-Sepharose-4B beads were added and incubated for 30 min. The beads were washed three times with PBS-T. Bound protein was eluted in Laemmli sample buffer, fractionated by SDS-PAGE, and subjected to immunoblot assay using antibodies against PHD2 (Novus Biologicals Inc.) or GST (Amersham).

T1 sequence (Q9GZT9 whole entry): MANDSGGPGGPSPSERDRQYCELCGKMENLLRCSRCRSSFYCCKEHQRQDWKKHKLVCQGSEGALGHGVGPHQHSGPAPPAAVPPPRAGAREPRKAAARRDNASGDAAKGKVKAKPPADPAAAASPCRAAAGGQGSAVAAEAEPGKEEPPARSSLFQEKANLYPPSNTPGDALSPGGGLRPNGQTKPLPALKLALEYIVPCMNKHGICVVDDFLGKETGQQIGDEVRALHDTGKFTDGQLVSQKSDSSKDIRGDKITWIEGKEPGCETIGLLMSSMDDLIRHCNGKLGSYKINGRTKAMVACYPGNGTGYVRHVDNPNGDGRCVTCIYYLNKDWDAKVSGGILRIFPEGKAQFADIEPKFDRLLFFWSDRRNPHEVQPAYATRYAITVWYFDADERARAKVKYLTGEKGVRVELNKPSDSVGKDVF

B1: OS-9: human OS-9 protein (667-residue isoform), HA-tagged, from expression vector or in vitro-translated (protein)
chain: MAAETLLSSLLGLLLLGLLLPASLTGGVGSLNLEELSEMRYGIEILPLPVMGGQSQSSDVVIVSSKYKQRYECRLPAGAIHFQREREEETPAYQGPGIPELLSPMRDAPCLLKTKDWWTYEFCYGRHIQQYHMEDSEIKGEVLYLGYYQSAFDWDDETAKASKQHRLKRYHSQTYGNGSKCDLNGRPREAEVRFLCDEGAGISGDYIDRVDEPLSCSYVLTIRTPRLCPHPLLRPPPSAAPQAILCHPSLQPEEYMAYVQRQADSKQYGDKIIEELQDLGPQVWSETKSGVAPQKMAGASPTKDDSKDSDFWKMLNEPEDQAPGGEEVPAEEQDPSPEAADSASGAPNDFQNNVQVKVIRSPADLIRFIEELKGGTKKGKPNIGQEQPVDDAAEVPQREPEKERGDPERQREMEEEEDEDEDEDEDEDERQLLGEFEKELEGILLPSDRDRLRSEVKAGMERELENIIQETEKELDPDGLKKESERDRAMLALTSTLNKLIKRLEEKQSPELVKKHKKKRVVPKKPPPSPQPTEEDPEHRVRVRVTKLRLGGPNQDLTVLEMKRENPQLKQIEGLVKELLEREGLTAAGKIEIKIVRPWAEGTEEGARWLTDEDTRNLKEIFFNILVPGAEEAQKERQRQKELESNYRRVWGSPGGEGTGDLDEFDF
modifications: left off: small tags and cut ends
notes: human OS-9 protein (667-residue isoform), HA-tagged, from expression vector or in vitro-translated
HIF-1α protein levels ([1]; 293 cells co-transfected with HIF-1α and OS-9 expression vector, FIG. 3C): reduced
levels of HIF-1α-TM (P402A/P564A/N803A) ([1]; 293 cells co-transfected with OS-9 expression vector, FIG. 4A): no effect
levels of FLAG-tagged HIF-1α ([1]; 293 cells, increasing amounts of PHD2 expression vector, presence of OS-9, FIG. 6A): dramatically reduced
PHD2 protein levels [2]: no effect
prolyl hydroxylation of GST-HIF-1α (531-826) (hydroxyproline at residue 564) ([3]; immunoblot with anti-Hyp-564 antibody, FIG. 7A middle panel): increase
binding of VHL to hydroxylated GST-HIF-1α (531-826) ([3]; increasing amounts of in vitro-translated OS-9 added after hydroxylation, desferrioxamine present, FIG. 6C): no effect
VHL binding to GST-HIF-1α (531-826) ([3]; lysates from cells co-transfected with PHD2 and OS-9 versus PHD2 alone, FIG. 7A top panel): further increased
